Laboratory results: patent US20140274782A1, “AFFINITY REAGENTS AND METHODS FOR DETECTION, PURIFICATION, AND PROTEOMIC ANALYSIS OF METHYLATED PROTEINS” (The Board of Trustees of the Leland Stanford Junior …, priority 2013, published 2014)

Biological target: T1, G9a (Homo sapiens, UniProt Q96KQ7)
T1 construct: in vitro methylation assays on SIRT1 and SIRT1K622R using recombinant G9a SET domain
Test: In vitro methylation reaction with 3H-SAM, autoradiograph
Assay type: biochemical
Conditions: recombinant SIRT1, recombinant G9a SET domain
Description: Recombinant GST-SIRT1 was expressed by baculoviral transduction of the Sf9 insect cell line as previously described (Levy et al. (2011) Nat. Immunol. 12, 29-36). A panel of enzymes was tested for ability to methylate recombinant SIRT1 using ^3H-SAM in in vitro methylation reactions (Kuo et al. (2011) Mol. Cell 44, 609-620). SIRT1K622R was generated by site-directed mutagenesis (Stratagene). For the pull-down experiment, 293T cells were transfected with a 10:1 enzyme:substrate DNA ratio. 150 μg of nuclear proteins were used for pull-downs with 3×MBT or 3×MBTD355N coupled GSH-Sepharose as described above.

T1 sequence (Q96KQ7 1038-1155 limits assumed, species assumed): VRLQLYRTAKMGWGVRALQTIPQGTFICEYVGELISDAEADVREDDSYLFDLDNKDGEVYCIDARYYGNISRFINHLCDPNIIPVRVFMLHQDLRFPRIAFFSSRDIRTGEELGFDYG

B1: SIRT1: NAD-dependent lysine deactylase SIRT1 (protein, UniProt Q96EB6 2-747, looked up)
NAD-dependent protein …: ADEAALALQPGGSPSAAGADREAASSPAGEPLRKRPRRDGPGLERSPGEPGGAAPEREVPAAARGCPGAAAAALWREAEAEAAAAGGEQEAQATAAAGEGDNGPGLQGPSREPPLADNLYDEDDDDEGEEEEEAAAAAIGYRDNLLFGDEIITNGFHSCESDEEDRASHASSSDWTPRPRIGPYTFVQQHLMIGTDPRTILKDLLPETIPPPELDDMTLWQIVINILSEPPKRKKRKDINTIEDAVKLLQECKKIIVLTGAGVSVSCGIPDFRSRDGIYARLAVDFPDLPDPQAMFDIEYFRKDPRPFFKFAKEIYPGQFQPSLCHKFIALSDKEGKLLRNYTQNIDTLEQVAGIQRIIQCHGSFATASCLICKYKVDCEAVRGDIFNQVVPRCPRCPADEPLAIMKPEIVFFGENLPEQFHRAMKYDKDEVDLLIVIGSSLKVRPVALIPSSIPHEVPQILINREPLPHLHFDVELLGDCDVIINELCHRLGGEYAKLCCNPVKLSEITEKPPRTQKELAYLSELPPTPLHVSEDSSSPERTSPPDSSVIVTLLDQAAKSNDDLDVSESKGCMEEKPQEVQTSRNVESIAEQMENPDLKNVGSSTGEKNERTSVAGTVRKCWPNRVAKEQISRRLDGNQYLFLPPNRYIFHGAEVYSDSEDDVLSSSSCGSNSDSGTCQSPSLEEPMEDESEIEEFYNGLEDEPDVPERAGGAGFGTDGDDQEAINEAISVKQEVTDMNYPSNKS
modifications: GST or 3xFlag tag
in vitro methylation by G9a: methylates the NAD-dependent lysine deactylase SIRT1 at lysine 622
